Reference: the supplement of paper PMC11136658

System: peptide library, one residue held at a place counted from the Y acceptor
Experiment: relative phosphorylation of the sub-library (ratio to the mean residue at this position); higher = residue favoured
Procedure, shortened: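 Peptide library mixtures, biotinylated and centred on Tyr, each fixed one residue at one position from −5 to +5. Purified recombinant kinases were incubated with them for 90 min in 384-well plates alongside 50 μM ATP and γ-32P-ATP, and the captured, rinsed peptides on streptavidin membranes were measured by phosphorimaging and ImageQuant. Normalization divided each position's intensities by the sum of its 18 randomized residues (16 for the Ser/Thr-free library) and multiplied by that number, so that values give phosphorylation relative to the mean randomized residue.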

KDR, construct: aa789-end, human, sequence (P35968 789-1356, looked up): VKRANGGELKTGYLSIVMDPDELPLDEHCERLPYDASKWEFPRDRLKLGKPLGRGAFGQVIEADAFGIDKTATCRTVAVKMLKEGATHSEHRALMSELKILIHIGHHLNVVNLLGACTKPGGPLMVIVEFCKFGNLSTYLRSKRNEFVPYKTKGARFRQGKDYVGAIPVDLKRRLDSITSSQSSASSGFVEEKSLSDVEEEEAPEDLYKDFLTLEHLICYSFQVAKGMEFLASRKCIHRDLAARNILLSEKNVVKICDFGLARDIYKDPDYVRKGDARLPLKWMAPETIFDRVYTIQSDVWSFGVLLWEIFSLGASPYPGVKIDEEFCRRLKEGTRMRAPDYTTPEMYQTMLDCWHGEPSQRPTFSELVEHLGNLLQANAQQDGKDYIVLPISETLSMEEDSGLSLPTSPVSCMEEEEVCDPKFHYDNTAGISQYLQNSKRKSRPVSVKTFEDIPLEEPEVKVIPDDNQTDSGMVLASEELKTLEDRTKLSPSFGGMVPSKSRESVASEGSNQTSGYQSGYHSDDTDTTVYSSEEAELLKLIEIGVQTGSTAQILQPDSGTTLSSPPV
LCK, construct: Full length, human, sequence (P06239 whole entry, looked up): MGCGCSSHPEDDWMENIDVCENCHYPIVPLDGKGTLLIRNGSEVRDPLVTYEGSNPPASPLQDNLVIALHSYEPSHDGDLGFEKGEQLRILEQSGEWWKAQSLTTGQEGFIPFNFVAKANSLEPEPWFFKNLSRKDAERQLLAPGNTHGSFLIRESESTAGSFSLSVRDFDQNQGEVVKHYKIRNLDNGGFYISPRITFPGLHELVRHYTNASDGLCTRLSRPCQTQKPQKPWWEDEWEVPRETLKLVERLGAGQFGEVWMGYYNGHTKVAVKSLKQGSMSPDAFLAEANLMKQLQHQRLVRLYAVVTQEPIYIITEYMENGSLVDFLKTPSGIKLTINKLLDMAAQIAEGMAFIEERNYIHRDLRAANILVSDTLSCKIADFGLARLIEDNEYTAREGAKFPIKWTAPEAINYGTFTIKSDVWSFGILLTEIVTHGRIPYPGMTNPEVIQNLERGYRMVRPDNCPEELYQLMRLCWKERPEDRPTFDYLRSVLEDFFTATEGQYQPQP

KDR, construct: aa789-end, human (from UniProt P35968)
relative phosphorylation
Details	at +1	at +2	at +3	at +4	at +5	at -1	at -2	at -3	at -4	at -5
A fixed	0.852	0.685	0.543	0.829	0.944	0.816	0.954	0.915	1.04	1
D fixed	0.301	0.599	0.314	0.665	0.745	2.25	1.1	1.21	1.04	0.987
E fixed	0.416	0.621	0.246	0.608	0.696	1.46	1.2	1.29	1.26	0.973
F fixed	1.6	1.34	2.2	1.1	1.04	0.846	0.617	0.819	0.818	0.816
G fixed	0.612	0.417	0.465	1.01	1.13	0.631	1.36	1.17	1.33	1.21
H fixed	1.37	0.86	0.523	0.95	0.978	1.37	1.12	1.02	0.975	1.03
I fixed	1.22	0.919	2.05	0.733	0.86	1.05	0.546	0.573	0.741	0.756
K fixed	0.944	1.32	0.469	1.52	1.17	0.726	1.21	1.18	1.2	1.49
L fixed	1.06	1.39	2.56	0.906	0.907	0.886	0.723	0.745	0.788	0.771
M fixed	1.17	1.06	2.1	0.996	1.04	0.654	0.645	0.699	0.826	0.857
N fixed	0.634	1.12	0.465	0.862	1.05	1.36	1.32	1.23	0.886	1.08
P fixed	0.645	0.63	0.787	1.29	1.26	0.842	1.08	1.15	1.28	1.14
Q fixed	1.27	1.01	0.561	1.02	0.916	1.07	1.19	1.09	1.12	1.01
R fixed	1.14	1.77	0.7	1.6	1.39	0.841	1.55	1.29	1.36	1.44
S fixed	0.712	0.921	0.599	0.982	1.09	0.671	1.14	1.05	0.856	0.973
T fixed	0.939	0.924	0.675	0.989	1.18	0.86	0.938	1.06	0.743	0.947
V fixed	1.79	1.02	1.65	0.841	0.733	0.962	0.637	0.633	0.756	0.768
W fixed	1.31	1.39	1.09	1.09	0.872	0.689	0.658	0.883	0.991	0.761
pThr fixed	0.636	1.09	0.307	0.54	0.602	1.64	1.14	1.41	1.1	1.25
pTyr fixed	2.12	1.83	0.405	0.526	0.731	2.89	1.99	2.27	2.12	1.45

LCK, construct: Full length, human (from UniProt P06239)
relative phosphorylation
Details	at +1	at +2	at +3	at +4	at +5	at -1	at -2	at -3	at -4	at -5
A fixed	1.69	1.08	0.69	0.928	1.14	0.73	1.02	0.875	1.08	1.06
D fixed	1.03	0.616	0.245	0.484	0.691	0.877	1.4	1.77	1.4	1.28
E fixed	1.58	1.07	0.211	0.557	0.532	1.22	1.68	2.02	1.63	1.13
F fixed	0.615	0.776	1.65	0.931	1.28	1.06	0.572	0.895	0.822	0.96
G fixed	2.95	0.934	0.904	1.18	1.14	0.416	1.35	1.1	1.25	1.17
H fixed	0.786	0.711	1.06	1.02	0.844	0.757	0.99	1.01	0.975	0.962
I fixed	0.738	0.932	1.92	0.85	0.639	2.81	0.663	0.549	0.792	0.836
K fixed	0.271	0.936	0.752	1.66	1.07	0.308	0.641	0.562	0.665	0.852
L fixed	0.686	0.754	1.67	0.887	0.942	1.93	0.796	0.731	0.921	0.866
M fixed	1.37	0.795	0.932	1.03	0.91	0.894	0.726	0.73	0.792	0.878
N fixed	0.54	0.934	0.429	0.801	0.92	0.431	1.25	1.42	1.11	1.24
P fixed	0.225	1.33	0.84	1.07	1.31	0.833	1.32	1.01	1.2	1.23
Q fixed	0.979	0.954	0.45	1	0.937	0.538	1.2	1.01	1.19	1.15
R fixed	0.438	1.2	1.55	1.69	1.34	0.238	0.696	0.637	0.82	0.98
S fixed	1.11	1.31	0.651	0.911	1.28	0.405	1.22	0.982	0.885	0.897
T fixed	0.821	1.36	0.697	0.849	0.968	1.32	0.982	0.892	0.735	0.841
V fixed	0.868	1.2	1.33	0.846	0.89	2.65	0.749	0.693	0.749	0.703
W fixed	1.3	1.11	2.02	1.3	1.16	0.584	0.748	1.11	0.989	0.971
pThr fixed	0.786	1.27	0.195	0.27	0.448	3.03	1.47	1.18	1.13	1.17
pTyr fixed	1.22	1.24	0.303	0.289	0.434	1.21	1.16	1.59	1.64	0.861
